According to patent US9988424:

Legend:
[1] = biological target: 92TH023 V2 cyclic peptide (HIV-1); experiment: RPMI 8866 cell adhesion to coated peptide, mAb 5 ug/ml
[2] = biological target: 92TH023 V2 cyclic peptide (HIV-1); experiment: RPMI 8866 cell adhesion to coated peptide, mAb 10 ug/ml
[3] = biological target: V2 aa 168-182 peptide (HIV-1); experiment: ELISA on V2 peptide (FIG. 55A)
[4] = biological target: 92TH023 V2 cyclic peptide (HIV-1); experiment: RPMI 8866 cell adhesion to coated peptide, mAb 20 ug/ml

B1: CH59 (antibody, V domains shown)
VH: EVQLVESGGGLVQPGRSLRLSCAASGFTFDDGAMHWVRQAPGKGLEWVSGISWNSNIIAYADSVKGRFTISRDNAKNSLYLEMNSLRVEDTALYYCAKDSPRGELPLNYWGQGTLVTVSS
VL: SYELTQPPSVSVSPGQTARITCSGDALPKNYAYWYQQKSGQAPVLVIYEDSKRPSGIPERFSGSSSGTMATLTISGAQVEDEADYYCYSTDSSGNHRVFGGGTKLTVL
With B1 the % inhibition [1] was 19.4%, the % inhibition [2] was 36.7% and the EC50 [3] was 3 ng/mL. It also gave a % inhibition [4] of 44.8%.

B2: 697D (antibody, V domains shown)
VH: QVQLVQSGAEVKKPGSSVKVSCKASGGNFNTYTISWVRQAPGQGLEWMGRIIPIFGIVNPAQKFPGRVTINVDKSTNTAYMELSSLRSEDTAVYYCATSGVGLHFGYFDYWGQGTQVTVSS
VL: QSVLTQPPSVSGAPGQRVTISCTGSSSNIGAHYDVHWYQQLPGTAPKLLIYGNSNRPSGVPDRFSGSKSGTSASLAITGLQAEDEADYYCQSYDSSLSGYVFGTGTKVTVL
B2 showed a % inhibition [2] of -13.1%.
